Measured values reported in PMC5772480, “Galectin-13, a different prototype galectin, does not bind β-galacto-sides and forms dimers via intermolecular disulfide bridges between Cys-136 and Cys-138” (Scientific Reports, 2018).
Residue numbers refer to the chain shown, from its start. ≈ marks a conversion by molar mass, not a printed value. Each block holds one molecule with its values, some of them ahead of it.

What was measured:
[1] = target: T1, Gal-13 (galectin-13, placental protein 13, PP13) (Homo sapiens, UniProt Q9UHV8, R53H); assay: inhibition of hemagglutination of chicken erythrocytes; format: cell-based; settings: pH 7.4 PBS, on ice; minimum inhibition concentration
T1 construct: gene LGALS13; full length 1-139, synthetic gene in pET28a, E. coli BL21(DE3); N-terminal His tag removed by thrombin; disulfide-linked homodimer
T1 sequence (Q9UHV8 1-139 R53H): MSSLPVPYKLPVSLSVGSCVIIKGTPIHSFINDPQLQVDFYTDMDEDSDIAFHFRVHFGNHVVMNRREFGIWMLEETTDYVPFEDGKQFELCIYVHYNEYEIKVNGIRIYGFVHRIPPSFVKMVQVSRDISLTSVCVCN
Excerpt: inhibition of hemagglutination of chicken erythrocytes on Gal-13 (galectin-13, placental protein 13, PP13) | maltose and arabinose could inhibit the biological activity of […]

[2] = target: T2, Galectin-13 (wild type) (human), Q9UHV8; assay: SEC; Superdex 75 10/300, PBS pH 7.4, 25 °C, 100 μg protein loaded, 0.5 ml/min; apparent molecular weights from a standard curve; Gal-13 also run in the presence of 10 mM DTT (mostly monomer, small amount of dimer); settings: remark: other sources report otherwise
T2 chain: T1 sequence (Q9UHV8 1-139 R53H) with H53R

[3] = target: T2, Galectin-13 (wild type) (human), Q9UHV8; assay: non-reducing SDS-PAGE; SDS-PAGE of Gal-13 with or without DTT reduction; dimer band at approximately 38 kDa without DTT; settings: remark: other sources report otherwise
[4] = target: T2, Galectin-13 (wild type) (human), Q9UHV8; assay: native gel or EMSA; native PAGE, 15% separating gel, Tris-glycine buffer, 5 μg protein per lane, 90 V for 3 h; migration compared with Gal-1 (dimer) and C136S/C138S (monomer); settings: remark: other sources report otherwise

MIC [1]: 12.5 mM (≈ 4.28 mg/mL)
Molecule: OC[C@H]1O[C@H](O[C@H]2[C@H](O)[C@@H](O)C(O)O[C@@H]2CO)[C@H](O)[C@@H](O)[C@@H]1O (some centres unmarked) [maltose]

MIC [1]: 200 mM (≈ 30 mg/mL)
Molecule: OC1OC[C@H](O)[C@H](O)[C@H]1O (some centres unmarked) [arabinose]

stoichiometry N [2]: 2 | stoichiometry N [3]: 2 | stoichiometry N [4]: 2
B1: Galectin-13 (wild type), Q9UHV8 1-139 (natural protein)
chain: T1 sequence (Q9UHV8 1-139 R53H) with H53R
modifications: here or on the partner: intermolecular disulfide bonds Cys136-Cys138' and Cys138-Cys136' in the dimer; intermolecular disulfide bonds Cys136-Cys138' and Cys138-Cys136' in the dimer
